Measured values: the nanobody polyreactivity screen of Harvey et al. (2022)

Assay: yeast display, Sf9 membrane polyspecificity reagent, FACS + sequencing; frameworks hold sequencing errors
Summary of the method: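 Nanobodies came from a synthetic yeast display library in Saccharomyces cerevisiae BJ5465, induced with galactose for 36–48 hours and stained for 1 hour at 4 °C with 10% biotinylated, detergent-solubilized Sf9 membrane reagent. Cells were enriched on streptavidin microbeads and then FACS-sorted, with low and high (top ~1%) gates set on anti-HA fluorescence for expression and streptavidin fluorescence for reagent binding. Each polyreactivity label reflects the gate a clone came from. Genes were amplified by colony PCR, sequenced by MiSeq 2 × 250 and filtered by CDR length.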

Sequence | polyreactivity (PSR sort gate)
QVQLVESGGGLVQAGGSLRLSCAASGSTFGWYAMGWYRQAPGKERELVAAISTSGNTYYADSVKGRFTISRDNAKNTVYLQMNSLKPEDTAVYYCAKYVNPDHDYWGQGTQVTVSS | low polyreactivity
QVQLVESGGGLFQAVGSLRLSCAASGLFFIKYTMGWYRQAPGKERELFAVISGSGGSTYYADSVKGRFTISRDNAKNTVYLQMNSLKPEDTAVYYCAARSYALGYGGGYWGQGTQVTVSS | high polyreactivity
QVQLVESGGGLVQAGGSLRLSCAASGSIYYYAMGWYRQAPGKEMELVAAITRSGGGTYYADSVKGRFTISRDNAKNTVYLQMNSLKPEDTAVYYCAAARYSRAQPNWTYNYWGQGTQVTVSS | high polyreactivity
QVQLVESGGGLVQAGGSLRLSCAASGRTFAFHDRGWYRQAPGNERELVAALTSVASTYYADSVKGRFTISRDNAKNTVYLQMNSLKPEDTAVYYCAADTRSLRPRYQLYGEDSWGQGTQVTVSS | low polyreactivity
QVQLVESGGGLVQAGGSLRLSCAASGGIFYSYAMGWYRQAPGKEREFVAAIRRSGGRTYYADSVKGRFTISRDNAKNTVYLQMNSLKPEDTAVYYCAADGWYSGGHDYWGQGTQVTVSS | high polyreactivity
QVQLVESGGGLVQAGGSLRLSCAASGNTFDIYTMGWYRPAPGKERELVATISSGGRTNYADSVKGRFTISRDNAKNTVYLQMNSLNPEDTAVYYCAKNLRYVWWYDHFRPYGYWGQGTQVTVSS | high polyreactivity
QVQLVESGGGLVQAGGSLRLSCAASGFIFVRYAMGWYRQAPGKERELVAAISTSGSSTYYADSVKGRFTISRDNAKNTVFLQMNSLKPEDTAVYYCAAKDRGQSYGYWGQGTQVTVSS | high polyreactivity
QVQLVESGGGLVQAGGSLRLSCAASGRTFSFYAMGWYRQAPGNERELVASMSRSGASTYYADSVKGRFTISRDNAKNTVYLQMNSLKPEDTAVYYCAAEWGRRYIYYYWGQGTQVTVSS | high polyreactivity
QVQLVESVGGLVQAGGSLRLSCAASGRTFFYNAMGWYRQAPAKERELVAAIDWSGDSTYYADSVKGRFTISRDNAKNTVYLQMNSLKPEDTAVYYCAARRKNRRDYDYYYWGQGTQVTVSS | high polyreactivity
QVQLVESVGGLVQAGGSLRLSCAASGFTFGRYAMGWYRQAPGKESELVATITRTGSTNYADSVKGRFTISRDNAKNTVYLQMNSLKPEDTAVYYCAKDWAYRRHWVGFYYWGLGTQVTVSS | low polyreactivity
QVQLVESGGGLVQAGGSLRLSCAASGLIFYVYARGWYRQAPGKERELVAAIRYRGGTTHYADSVKGRFTISRDNAKNTVYLQMNSLKPEDTAVYYCAADGYVYRSGRRYDYWGQGTQVTVSS | high polyreactivity
HVQLVESGGGLVQAGGSLRLSCAASGYTFVPYAMGWYRQAPGKERELVAAISSSGGDTYYADSVKGRFTISRDNAKNTVYLQMNSLKPEDTAVYYCNTGVYVWQYWYYGFDYWGQGTQVTVSS | low polyreactivity
QVQLVESGGGLVQAGGSLRLSCAASGIIIYKYAMGWDRQAPGTERELVAAITSGGGRTYYADSVKGRFTISRDNAKNTVYLQMNSLKPEDTAVYYCAATRPATYAAYDYWGQGTQVTVSS | high polyreactivity
QVQLVESGGGLVQAGGSLRLSCAASGITLTIYVMGWYRQAPGKEREFVAAISKSGGSTYYADSVKGRFTISRDNAKNTVYLQMNSLKPEDTAVYYCAADVILYDFADYYVIYDYWGQGTQVTVSS | high polyreactivity
QVQLVESGGGLVQAGGSLRLSCAASGFTFSTYAMGWYRQEPGKEREFVATISWRGTNTYYADSVKGRFTISRDNAKNTVYLQMNSLKPEDTAVYDCAARRRSGYGANDYWGQGTQVTVSS | high polyreactivity
QVQLVESGGGLVQAGGSLRLSCAASGSTSYVYAMGWYRQAPGKEREFVAAIRSSGGDTYYADSVKGRFTISRDNAKNTVYLQMNRLKPEDSAVYYCNDRYATAVARFGYWGQGTQVTVSS | high polyreactivity
QGQLVESGGGLVQAGGILRLRCAASGRMFQQYAMGWYRQAPGKERELVAVITYRAGRTHYADSVKGRFTISRDIAKNTVYLQMYRVKPDDTAVYYCAAGRYYAVWHSISGFDSWGQGTQETVSS | low polyreactivity
QVQLVESGGGLVQAGGSLRLSCAAAGTTFSHNTMGWYRQAPGKERELVAAITSGGTTYYADSVKGRFTISRDNAKNTVYLQMMSLKPEDTAVYYCAALRPRGGYYYWGQGTQVTVSS | high polyreactivity
QVQLVESGGGIVQAGGSLRLSCAASGNAMGWYRQAPGKERELVASINRSGGRTYYADSVKGRFTISRDNAKNTVYLQMNSLKPEDTAVYYCAARPHYDSDYWGQGTQVTVSS | low polyreactivity
QVQLEESGGGLVQAGGSLRLSCAASGINFSVYGMGGYRQATGKERELVASITKSGGTTYYADSVKGRFTISRDNAKNTVYLQMNSLKPEDTAVYYCAAAWSDKRVLSVYYAYYWGQGTQVTVSS | high polyreactivity
QVQLVESGGGLVQAGGSLRLSCAASGSIFAYNAMGWYRQAPGKEREFVAVITRSDDSTYADSVNGRFTISRDNAKNTVSLQMNSLKPEDTAVYYCAALQFVIDGGYRGDYWGQGTQVTVSS | low polyreactivity

Sequence | polyreactivity (PSR sort gate)
QVQLVESCGGLVQAGGSLRLSCAASGFTFYYYVMGWYRQAPGQERELVAAISRSGGNTYYADSVKGRFTISRDNAKNTVYLQMNRLKPEDTAVYYCNAVQYYPVYYWGQGTQVTVSS | high polyreactivity
QVQLVESGGGLVQAGGSLRLSCAASGFTFTYNDMGWYRQAPGKEREFVAAISSTGGSTYYADSVKGRFTISRDNAKNTVYLQMNSLIPEDTAVYYCAAEDSWYWDAWFDYWGQGTQVTVSS | low polyreactivity
QVQLVESGGGLVQAGGSLRLSCAASGITLYFYARGWYRQAPGKERELVAAISRGGRTYYADSVKGRFTISRDNAKNTVYLQMNSLKPEDTAVYDCAARYTSEYSAFDYWGQGTQVTVSS | low polyreactivity
QVQLVESGGGLVQAGGSLRLSCAASGNTFSWYAMGWYRQAPGKERELVAVITSGGSTNYADSVKGRFTISRDNAKNTVYLQMNSLKPEDTAVYYCNKGLSRSYWWVDYWGQGTQVTVSS | low polyreactivity
HVQLVESGGGLVQAGGSLRLSCAASGSTFAGNAMGWYRQAPGKERELVAAITFSGGRTDYADSVKGRFTISRDNAKNTVYLQMNSLKPEDTAVYYCAAPADDTVHYQNYYWGQGTQVTVSS | low polyreactivity
QVQLVESGGGLVQAGGSLRLSCAASGSTFVRYVMGWYRQAPGKERELVAAISRRGGSTYYADSVKGRFTISRDNAKNTVYLQMNSLKPEDTAVYYCAARGTSRKYYYWGQGTQVTVSS | high polyreactivity
HVHLVESGGGLVQAGGRLRLTCAASGRTFQKYAMGWYREAPRKERELVAAITTSGGSTYYADSVKGRFTISRDYAKYTVYLQMNSLKPEDTAVYYCNKAYAYAGHDYDWGQGTKVTVSS | high polyreactivity
QVQQQESGGGLVQAGGSLRLSCAASGTILYSLGMGWYRQAPGKRREFVASITWGTTTNYAESVKGRFTISRDNAKNTVYPQMNSLKPEDTAVYYCNKSSTGWTSTYDYWGQGTQVTVSS | low polyreactivity
QVQLVESGGGLVQAGGSLRLSCAASGFISAYYALGWSRQAPGKERELVAGITRGGNTYYADSVKGRFTISRDNAKNTVYLQMNSLKPEDTAVYYCAAEGSHNSEYWGQVTQVTVSS | high polyreactivity
QVQLVESGGGLVQAGGSLRLSSAASGSSFYRYAMGSYRQAPGKERELVATITRSGGSTYYADSVKGRFTISRDNAKNTVYLQMNSLKPEDTAVYYCAARGWYKSDYWGQGTQVTVSS | low polyreactivity
QVQLVESGGGLVQAGGSLRLSCAASGSIFTPNTMGWYRQAPGKEREFVAAINTSGSTNYADSVKGRFTISRDNAKNTVYLQLNSLKPEDTAVYYCAAGIVVTGYDYWGQGTQVTVSS | low polyreactivity
QVQLVESGGGLVQAGGSLRLSCAASGRIFEIYALGWYRQAPGKERELVAAISWRGVSTYYADSVKGRFTISRDNAKNTVYLQMKSLKPEDTAVYYCNKDVDYFWYVEYDYWGQGTQVTVSS | low polyreactivity
QVQLVESGGCLVQAGGSLRLSCAASGRSFRLYAMGGYRQAPGKERELVAAITRGGRTNYADSVKGRFTISRDNAKNTVYLQMNSLKPEDTAVYYCAARYVERHTDYYYWGQGTQVTVSS | low polyreactivity
QVQLVESGGGLVQAGGSLRLSCAASGFTFGYYAMGWYRQATGKERELVATITGSGVRTYYADSLKGRFTISRDNAKNSVYLQMNSLKPEDTAVYYCNKVFSIPWQGVRFDYWGQGTQVTVSS | high polyreactivity
QVQLVESVGGLVQAGGSLRLSCAASGSTFYTYDMGWYRQAPGKERELVAAISRRDGITYYADSVKGRFTISRDNAKNTVYLQMNILKPEYTAVYYCAAEDAYLYYDFDYWGQGTQVTVSS | low polyreactivity
QVQLVESGGGLVQAGGRLRLSCAASGITFYDYAMGWYRQAHGKERELVAVITRRGGSTYYAHSVKGRFTISRDNAKNTVYLQMNSLKPEDTAVYYCNADRTAPERYSRVPSSDSWGQGTQVTVSS | high polyreactivity
QVQLVESGGGLVQAGGSLRLSCAASGIIISINAMGWYRQAPGKERELVAAISRSGGSTNYADSVKGRFTISRDNAKNTVYLQMNSLKPVDTAVDYCATVHRYSVWSHNYWGQGTQVTVSS | high polyreactivity
QVQLVESGGGLVQAGGSLRLSCAASGFISHYYAMGWYRQAPGKERELVAAIRISGDRTYYADSVKGRFTISRDNAKNTVYLQMNSLKPEDTAVYYCNAVWEYYGKSDYWGQGTQVTVSS | low polyreactivity
QVQLVESGGGLVQAGGSLRLSCAASGSILDSNAMGWYRQAPGKERELVAAITSGGSTYYADSVKGRFTISRDNAKNTVYLQMNSLKPEDTAVYFCAAAFLGYGAVQPSYEGGYWGQGTQVTVSS | low polyreactivity
QVQLVESGGGLVQAGGSLRLSCAASGFIFRINAMGWYRQAPGKERELVARITSGGSTYYADSVKGRFTISRDNAKNTVYLQMNSLKPEDTAVYYCAARVKYYGSQSRYYWGQVTQVTVSS | high polyreactivity
